Test results reported in patent publication US12357582B2, “Hydrophobic ion pairing and flash nanoprecipitation for formation of controlled-release nanocarrier formulations” (The Trustees of Princeton University, priority 2017, dated 2025).

How the values were obtained:
[1] = Encapsulation efficiency (ultrafiltration, BCA assay); type: physicochemical; settings: LL37:SDS 1:1 PCL5k-b-PEG5k NPs
[2] = Particle size and polydispersity by dynamic light scattering; type: physicochemical; settings: LL37 pre-ion paired with SDS 1:1 charge ratio, PCL5k-b-PEG5k NPs

LL37: cationic antibiotic peptide, 1719 Da, sequence FKRIVQRIKDFLR (nanoparticle formulation; LL37) [reference compound]
Encapsulation efficiency [1]: over 95%
NP diameter [2]: ~120 nm
